From patent publication US10913711B2, “Potent and selective inhibitors of monoamine transporters; method of making; and use thereof” (priority 2013, dated 2021) come the findings set out here.

In the series the test system is ON(O)CCc1ccccc1. The series can be described thus: cells, lysate or membranes. Particulars: other: [3H]DA uptake, COS7 cells; pH 7.4; 37.0 °C.

With “human DAT A480T mutant (Homo sapiens; A480T)”, the Km is given as 1,930 nM.
